Molecular target: RctB, wild-type full-length (residues 1–658) (Vibrio cholerae)
Experiment: native MS

RctB, wild-type full-length (residues 1–658) (natural protein)
stoichiometry N: 2

From PMC5397143
